The source of these data is article PMC6643034 (2019).

To fix the notation:
B1: P942 (natural protein)
chain: DGGNQLSGPQSSANSNEAVFCDTNCTQGTDEAWSGCRGDCFCVYVGNSTEGRCMMLSGDFDYSTPGAED
modifications: also: glycosylated
B2: P1126 (natural protein)
chain: DGGKPQILQRTDKSTDSEWDPQTCPETCIPSKNITCSDGCVCVKLGEEEEGTCFNMTGVDWLGSPSDD
modifications: also: glycosylated
B3: P1100_IXORI (natural protein)
chain: GSKGSSASQSSDNSVVAKFCDTNCTINEGGKWTECKGGCFCVHVGNETVGRCMKLDGDYDYPSPKPEE
B4: P1078_IXORI (natural protein)
chain: GSKGSSAQQSSHDSIKAEFCETNCTMKTGGKWTQCHGGCFCVHVGNETVGRCIKLDGDYDYPSSKHEE
B5: P1090_IXORI (natural protein)
chain: GSKELSGPESSENSIEAAFCDTNCTEGTDGVWSGCSAGCFCVHVGNSTVGRCMTFNGVD
B6: P1142 (natural protein)
chain: DGGKPQILQRTDHSTDSDWDPQMCPETCNPSKNISCSSECLCVTLGGGDETGTCFNMSGVDWLGHAQASDGHNDGGGASAWSHPQFEKLEHHHHHHHH
modifications: glycosylated (periodic acid–Schiff staining)
B7: P675 (natural protein)
chain: GSNQLSGPQSSANSNDAVFCDTNCTQGTDGAWSGCRGDCFCVHVGNSTEGRCIELIGDFDYSTPGAED
modifications: also: glycosylated
B8: P1080_IXORI (natural protein)
chain: SAGSKGSSAPQSSGDSVVAEFCDTNCTMKKDGKWTECNGDCFCVHVGNETVGRCMRLDGDYDYTSSKTTRRNKKTRNGLCRLDRNRTTVDYPERNTREP
B9: Evasin 3 (EVA3) (natural protein)
chain: DGGLVSTIESRTSGDGADNFDVVSCNKNCTSGQNECPEGCFCGLLGQNKKGHCYKIIGNLSGEPPVVRR
modifications: also: glycosylated
B10: P1104 (natural protein)
chain: ESKEASASQGPGKSFKVEFCETNCTENNGVWSGCTGDCICVSVGDSKEGRCMDLGDKVIDTPVAQG
modifications: also: glycosylated
B11: P1170_IXORI (natural protein)
chain: LGDEDQLFSVEYCGTNCTQQDDGKWTPCSGKNGKCKCYHEDGKRYGLCLYTEYTDFSQYPNPEGSEIENTRPRP
B12: P1172_IXORI (natural protein)
chain: FLLKSQLCYCLFGIELIGAGIHALHEDEIFTVDYCGTNCTKQSNGSWTTCPGNCSCYHEDGKTDGFCLSTEYTDFTQFPNLTSEEMDAATPRPE
B13: P1124_IXORI (natural protein)
chain: DSKGTSDSQDSTKSIKVDFCETNCTKTDGGWTGCTGDCICVSVGDSIEGRCMDFG
B14: P1086_IXORI (natural protein)
chain: GSKGQRASQVSETSITAEFCDTSCTQGTDKTWSGCSGDCFCVHVGNDTEGRCMRWDGDYPSAEEEE
B15: P1134 (natural protein)
chain: NEEVFTVEYCGMNCTQKSDGTWTECSGKNKDCRCYHESDAREGLCLSTEYTDFSQFETPSNSDLEAATPRPRKTLYPVRNPHGPKTRGLGYDKRILRDRVKFLI
modifications: glycosylated (periodic acid–Schiff staining)
B16: CXCL11 (ligand)
chain: FPMFKRGRCLCIGPGVKAVKVADIEKASIMYPSNNCDKIEVIITLKENKGQRCLNPKSKQARLIIKKVERKNF
B17: CXCL4 (ligand)
chain: EAEEDGDLQCLCVKTTSQVRPRHITSLEVIKAGPHCPTAQLIATLKNGRKICLDLQAPLYKKIIKKLLES
B18: CXCL13 (ligand)
chain: VLEVYYTSLRCRCVQESSVFIPRRFIDRIQILPRGNGCPRKEIIVWKKNKSIVCVDPQAEWIQRMMEVLRKRSSSTLPVPVFKRKIP

Sequence of CXCL8 (human) (chain, as listed by the source): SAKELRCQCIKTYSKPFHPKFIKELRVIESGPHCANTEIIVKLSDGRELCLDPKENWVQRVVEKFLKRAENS

One experiment has as its target B16. Put plainly: BLI. A general note: BLI is a label-free optical method that tracks binding on a fibre tip over time.
A word on the Kd: it is a measure of binding affinity in units of concentration. High values mean weaker binding, low ones tighter binding. The molecule B1 came in with a Kd of 12.4 nM.
Same read-out and setting: then B2, with 394 nM; and B3, with 102 nM.
On the same count and under the same terms, then B4, with 16.7 nM; and B5, with 3.85 nM.
Still for that read-out and setting: under B6 stands 322 nM; under B7, 7.73 nM.

For the next experiment, the target named is B17. Briefly: BLI.
The molecule B1 gave a dissociation constant (Kd) of 148 nM.
B8: binding was characterised by a dissociation constant (Kd) of 2310 nM.
Still for that read-out and setting: under B2 stands 393 nM.
On the same count and under the same terms, under B6 stands 381 nM.
Same read-out and setting: then B7, with 422 nM.

The target in a further experiment is T1, CXCL7 (human).
T1 chain: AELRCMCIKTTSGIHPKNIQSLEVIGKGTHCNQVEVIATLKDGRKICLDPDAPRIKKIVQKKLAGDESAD
Put plainly: BLI.
In the case of B2, the Kd is 6.05 nM. This counts as single-digit nanomolar.
Same read-out and setting: then B6, with 1.83 nM.

In another experiment the target is CXCL6 (human). Put plainly: BLI.
As to B1, binding was characterised by a dissociation constant (Kd) of 7.28 nM.
Molecule B8 yielded a Kd of 61 nM.
Molecule B9 came in with a Kd of 1.03 nM.
Same read-out and setting: then B2, with 9.12 nM; and B3, with 15.2 nM; and B10, with 34.3 nM.
B5 showed a Kd of 2.82 nM.
The same measure, in the same setting: then B6, with 6.27 nM.

The next experiment addresses CXCL8 (human). Put plainly: BLI.
As to B11, binding was put at a Kd of 12.3 nM.
The same measure, in the same setting: under B12 stands 26.7 nM.
The molecule B9 returned a Kd of 2.57 nM.

Another experiment addresses B18. Briefly: BLI.
The molecule B1 registered a dissociation constant Kd of 39.5 nM.
B8: the Kd turned out to be 1110 nM.
B4 registered a Kd of 255 nM. This Kd lies about 4.4-fold lower than the previous one.
On to B13, for which binding was put at a Kd of 256 nM.
With B10, binding was characterised by a dissociation constant (Kd) of 220 nM. The Kd values of the last two molecules are within 1.5-fold of each other.
In turn, B5 returned a dissociation constant Kd of 12.5 nM.
Still for that read-out and setting: then B7, with 582 nM.

Another experiment concerns the target CXC-motif chemokine ligand 10 (CXCL10) (human, UniProt P02778 22-98). Put plainly: BLI.
The molecule B14 displayed a Kd of 18.7 nM.
Turning to B1, the Kd was found to be 133 nM.
The same measure, in the same setting: then B8, with 1260 nM; and B2, with 7.9 nM; and B3, with 380 nM.
In turn, B5 came in with a dissociation constant (Kd) of 23.9 nM.
On the same count and under the same terms, under B6 stands 7.46 nM; under B7, 3120 nM.

In a further experiment the target is CXCL1 (human, UniProt P09341 35-107). Put plainly: BLI.
B1: the Kd turned out to be 3.09 nM.
In turn, B15 returned a dissociation constant Kd of 27.3 nM.
Same read-out and setting: under B11 stands 59.6 nM; under B12, 5.59 nM; under B9, 5.73 nM.
On the same count and under the same terms, then B2, with 10.5 nM; and B3, with 49.9 nM.
On the same count and under the same terms, under B4 stands 6.35 nM; under B13, 7.61 nM; under B10, 14.4 nM.
B5 returned a Kd of 3.55 nM.
Same read-out and setting: then B6, with 4.61 nM; and B7, with 9.99 nM.

For the next experiment, the target named is CXCL3 (human, UniProt P19876 35-107). Put plainly: BLI.
In turn, B14 registered a dissociation constant (Kd) of 15.2 nM.
Consider B1, for which the Kd was 5.04 nM.
Still for that read-out and setting: then B8, with 124 nM; and B9, with 7.37 nM.
The same measure, in the same setting: then B2, with 13.3 nM.
Molecule B3 had a Kd of 55.9 nM.
With B4, the Kd was found to be 43.8 nM.
B13 registered a dissociation constant (Kd) of 8.84 nM.
On the same count and under the same terms, under B10 stands 43.7 nM; under B5, 7.67 nM.
In the case of B6, the Kd worked out at 5.65 nM. This Kd and that of the molecule before are within 1.5-fold of each other.
On the same count and under the same terms, then B7, with 35.7 nM.

For another experiment, the target named is P1074_IXORI (Ixodes ricinus, UniProt A0A0K8RDH6 29-96). Put plainly: BLI.
In the case of B16, the equilibrium dissociation constant (Kd) was 12 nM.
On the same count and under the same terms, under B17 stands 157 nM; under B18, 95.8 nM.

In a further experiment the target is CXCL2 (human, UniProt P19875 35-107). Put plainly: BLI.
Molecule B1 yielded a Kd of 6.48 nM.
In the case of B12, the Kd is 26 nM.
The same measure, in the same setting: then B9, with 7.49 nM; and B2, with 5.11 nM.
Take B4: the equilibrium dissociation constant (Kd) stood at 68.3 nM.
Molecule B13 registered a Kd of 13.8 nM.
Still for that read-out and setting: then B10, with 82.3 nM; and B5, with 3.03 nM.
Still for that read-out and setting: then B6, with 2.14 nM; and B7, with 24.8 nM.

In another experiment the target is CXCL5 (human). Briefly: BLI.
Consider B1, for which the Kd was 21.1 nM.
Regarding B8, the affinity, expressed as Kd, was 55.1 nM.
Still for that read-out and setting: under B12 stands 59.3 nM; under B9, 24.9 nM.
The molecule B2 came in with a Kd of 12.1 nM.
The same measure, in the same setting: under B3 stands 50.8 nM; under B4, 39.2 nM.
Turning to B13, the Kd worked out at 26.4 nM.
The same measure, in the same setting: under B10 stands 24.5 nM; under B5, 43 nM.
On the same count and under the same terms, under B6 stands 9.81 nM.
On to B7, for which binding was characterised by a dissociation constant (Kd) of 34.2 nM.

A further experiment addresses CXCL12 (human, UniProt P48061 22-93). Briefly: BLI.
In turn, B13 returned an equilibrium dissociation constant (Kd) of 212 nM.
Still for that read-out and setting: then B10, with 67.8 nM.
